Data from patent publication US20240117061A1 (WUHAN YZY BIOPHARMA, published 2024).

Assays:
[1] = target: T1, recombinant cynomolgus monkey cynoBCMA-his (ACRO Biosystem, Cat. No. BCA-052H7) (cynomolgus monkey, UniProt A0A2K5UD97 1-53); test: competitive ELISA, coated cynoBCMA-his, competitor 83A10-biotin
T1 construct: extracellular domain; Bought protein; also called cynomolgus/rhesus macaque BCMA/TNFRSF17 protein; not shown: His tag

[2] = target: T2, recombinant cynomolgus monkey BCMA-mFc (cynomolgus monkey; mouse); test: indirect ELISA, coated antigen
T2 construct: also called cynoBCMA-mFc
T2 sequence (chain, as listed by the source limits assumed): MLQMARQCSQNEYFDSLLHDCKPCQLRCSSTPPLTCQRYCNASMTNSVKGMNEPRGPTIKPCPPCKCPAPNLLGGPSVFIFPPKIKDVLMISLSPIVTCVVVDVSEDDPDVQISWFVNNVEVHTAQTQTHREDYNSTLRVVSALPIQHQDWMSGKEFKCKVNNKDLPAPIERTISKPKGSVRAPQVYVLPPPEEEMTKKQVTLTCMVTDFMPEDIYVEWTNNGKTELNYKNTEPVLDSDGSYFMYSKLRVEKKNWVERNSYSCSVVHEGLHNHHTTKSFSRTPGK
Method: Procedures: Human, mouse and monkey BCMA antigens were prepared into 0.5 μg/mL coating solutions with PBS buffer. The coating solutions were added to a microplate at 100 μL/well and incubated at 4° C. overnight. The residual coating solution was discarded before 3% BSA was added at 300 μL/well, and the plate was blocked for 3 h at room temperature. The microplate was washed once with PB ST (PBS containing 0.1% of TWEEN 20) at 300 μL/well. The human-mouse chimeric monoclonal antibodies were serially 3-fold diluted from 10 μg/mL to the 9th concentration. The dilutions were added to the microplate at 100 μL/well. After a 1-h incubation at room temperature, the microplate was washed thrice with PB ST at 300 μL/well. The mouse anti-human IgG Fc antibody [HRP] mAb was 25,000-fold diluted with 1% BSA-PBST and added at 100 μL/well. After another 1-h incubation at room temperature, the microplate was washed thrice with PBST at 300 μL/well and dried. The TMB chromogenic solution was added at 100 μL/well. After a 5-min reaction at room temperature, 2 M H₂SO₄ was added at 100 μL/well to terminate the reaction. The microplate was placed on a microplate reader (Molecular Devices, SPECTRA Max plus 384) and the absorbance OD450 value was read at 450 nm wavelength.

[3] = target: T1, recombinant cynomolgus monkey …; test: ELISA, coated antigen
Procedure, shortened: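 Plates coated overnight at 4° C with 0.5 μg/mL His-tagged BCMA antigen (human or cynomolgus) in PBS pH 7.4, then blocked with 3% BSA. Humanized antibodies in 3-fold serial dilutions (11 points) were bound 1 h at room temperature. Detection used HRP anti-His antibody and TMB, read as OD450.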

[4] = target: T3, recombinant human BCMA-his fusion protein (ACRO Biosystem, Cat. No. BCA-H522y) (human, UniProt Q02223 1-54); test: competitive ELISA: huBCMA-his coated, varied antibody added first, then APRIL-biotin, streptavidin-peroxidase, OD450; blocked ligand APRIL
T3 construct: extracellular domain; Bought protein; also called huBCMA-his; hu BCMA-his; not shown: His tag
T3 sequence (looked up): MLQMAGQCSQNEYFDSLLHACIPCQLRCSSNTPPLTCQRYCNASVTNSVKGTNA
Method: The 96-well microplate was treated with 100 μL of 0.5 μg/mL huBCMA-his in PBS and incubated overnight at 4° C. The plate was then washed thrice with PBS washing buffer containing 0.1% of Tween-20 and blocked with 300 μL of PBS containing 1% of BSA for 2 h. 100 μL of each BCMA antibody was added to the plate. […] The plate was incubated at 37° C. for 1 h, and unbound secondary antibody was washed with PBS washing buffer containing 0.1% of Tween-20. The TMB chromogenic solution was added at 100 μL/well. After a 5-min reaction at room temperature, 2 M H₂SO₄ was added at 100 μL/well to terminate the reaction. The microplate was placed on a microplate reader (Molecular Devices, SPECTRA Max plus 384) and the absorbance OD450 value was read at 450 nm wavelength.

[5] = target: T4, cynomolgus monkey BCMA on HEK293 cynoBCMA cells (cynomolgus monkey, UniProt A0A2K5UD97 1-183); test: flow cytometry on HEK293 cynoBCMA cells
T4 construct: whole, on cells
T4 sequence (A0A2K5UD97 entry or part of it): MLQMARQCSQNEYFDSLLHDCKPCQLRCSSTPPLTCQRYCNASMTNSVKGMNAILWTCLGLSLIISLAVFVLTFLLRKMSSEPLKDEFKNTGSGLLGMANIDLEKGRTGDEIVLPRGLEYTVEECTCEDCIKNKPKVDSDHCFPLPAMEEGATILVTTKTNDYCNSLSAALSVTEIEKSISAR
Method: Procedures: Preparation of cell suspensions: The cells were resuspended in PBS, and the cell density was adjusted to 2×10⁵ cells/well. Mouse antibodies were added to a 96-well plate at […] and serially 3-fold diluted from 3000 nM. The plate was incubated for 1 h at 4° C. 150 μL of precooled PBS containing 1% of FBS was added into the 96-well plate after the co-incubation with the primary antibody was finished. The mixtures were centrifuged at 300×g for 5 min and the supernatants were discarded. The above procedures were repeated once. The fluorescent secondary antibody PE […] (Biolegend, 409304) was added at 80 μL/well. The plate was incubated at 4° C. for 30 min. 150 μL of precooled PBS containing 1% of FBS was added into the 96-well plate after the co-incubation with the secondary antibody was finished. The mixtures were uniformly mixed with a pipette. The 96-well plate was centrifuged at 300×g for 5 min in a plate centrifuge and the supernatants were removed. The above procedures were repeated once. The cells were resuspended in 100 μL of PBS containing 1% of FBS and detected on a flow cytometry (BD Accuri™ C6).

T1 sequence (A0A2K5UD97 entry or part of it): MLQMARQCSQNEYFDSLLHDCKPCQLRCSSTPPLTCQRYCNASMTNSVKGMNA

B1: human-mouse chimeric antibody c-mAb3 (antibody, human IgG1, V domains shown)
VH: EVQLQQSGPELVKPGASVKILCKASGYTITDYNMDWVKRSHGKSLEWIGNINPHNGGSIYNQKFKGKATLTVDKSSSTAFMELRSLTSEDTAVYYCARGDATLVLDYWGQGTSLTVSS
VL: DIVLTQSPASLAVSLGQRATISCRASKSVSTSGLSYMHWYQQKPGQPPKVLIYLASNLESGVPARFSGSGSGTDFTLNIHPVEEEDAATYYCQHSRELPPTFGAGTKLELK
notes: not shown: human IgG1 heavy chain constant region, GenBank No. AK303185.1; human kappa light chain constant region, GenBank No. MG815648.1
- IC50 [1]: 1.05 µg/mL
- EC50 [2]: 0.723 nM
- EC50 [3]: 0.0248 nM
- IC50 (read off the curve) [4]: ~0.4 µg/mL
- EC50 [5]: 2.66 nM
